According to PMC7668044, “Insights into bacterial cell division from a structure of EnvC bound to the FtsX periplasmic domain” (Proceedings of the National Academy of Sciences of the …, 2020):

Target: T1, mature EnvC (murein hydrolase activator), non-tagged, co-expressed for crystallisation (E. coli, UniProt P37690 35-419)
T1 construct: EnvC, E. coli, mature protein
T1 sequence (looked up): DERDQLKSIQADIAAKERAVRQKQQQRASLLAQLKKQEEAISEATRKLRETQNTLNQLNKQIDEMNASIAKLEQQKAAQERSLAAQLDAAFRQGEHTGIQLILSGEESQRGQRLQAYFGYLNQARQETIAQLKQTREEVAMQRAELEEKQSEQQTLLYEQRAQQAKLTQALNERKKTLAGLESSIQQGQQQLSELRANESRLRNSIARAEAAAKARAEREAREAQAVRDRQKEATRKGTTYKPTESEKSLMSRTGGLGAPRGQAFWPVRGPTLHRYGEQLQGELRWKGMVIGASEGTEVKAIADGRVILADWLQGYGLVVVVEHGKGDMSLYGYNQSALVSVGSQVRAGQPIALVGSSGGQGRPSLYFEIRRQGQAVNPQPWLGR
Test: crystal structure; X-ray, 2.1 Å, space group P2(1)2(1)2(1); His-tagged FtsX periplasmic domain and non-tagged EnvC coexpressed and copurified by Ni-IMAC; molecular replacement
Conditions: both partners purified

- stoichiometry N: 2 FtsX periplasmic domains per EnvC
B1: FtsX periplasmic domain, histidine-tagged, co-expressed for crystallisation (domain or fragment, E. coli)
chain: QITVYLQKTLDDDAAAGVVAQLQAEQGVEKVNYLSREDALGEFRNWSGFGGALDMLEENPLPAVAVVIPKLDFQGTESLNTLRDRITQINGIDEVRMDDS
notes: FtsX periplasmic domain (between the first and second transmembrane helix), E. coli; The two-hybrid construct of the same domain is residues 110 to 209; also called FtsX I; FtsX II; source: E. coli C43(DE3), coexpressed with non-tagged EnvC from a pETDuet1-based vector, copurified by Ni-IMAC
